According to the nanobody polyreactivity screen of Harvey et al. (2022):

Test: yeast display, Sf9 membrane polyspecificity reagent, FACS + sequencing; frameworks hold sequencing errors
In short: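 After 36–48 hours of galactose induction, yeast (Saccharomyces cerevisiae BJ5465) displaying a synthetic nanobody library were stained at 4 °C for 1 hour with 10% biotinylated, detergent-solubilized Sf9 membrane reagent. Streptavidin microbeads enriched the stained cells before FACS sorting into low and high (top ~1%) gates on anti-HA and streptavidin fluorescence. Each clone's polyreactivity label reflects its gate of origin.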

Sequence	polyreactivity (PSR sort gate)
QFQLVESGGGLVQAGGSLRLSCAASGRIFGPYAMGWYRQAPGKERELVASISGGGSTNYADSVKGRFTISRDNAKNTVYLQMNSLKPEDTAVYYCAADVYYQYWGWWPYDYWGQGTQVTESS	low polyreactivity
QFQLVESGGGLVQAGGSLRLSCAASGRIFGVYARGWYRQAPGKERELVAAISSTGGSTYYADSVKGRFTISRDTAKNTVYLQMNSLKPEDTAVYYCEYDYWGQGTQVTVSS	low polyreactivity
QFQLVESGGGLVQAGGSLRLSCAASGRIFVPNGMGWYRQAPGKERELVAVIDWSGGSTYYADSVKGRFTISRDNAKNTVYLQMNRLKPEDTAVYYCNAYPYDESDYWGQGTQVTVSS	low polyreactivity
QFQLVESGGGLVQAGGSLRLSCAASGRIFVRYAMGWYSQAPGKERQLVAAISKSGGSTYYADSVKGRYTISRDNAKNTVYLQMNSLNPEDTAVDYCAADYTGFFPDGSDVDFDYWGQGTQVTVSS	low polyreactivity
QFQLVESGGGLVQAGGSLRLSCAASGRTFGRYTMGWYRPAPGKEREFVARINWNGGGTYYEDSVKGRFTISRDNAKNTVYLQMNSLKPEDTEVYYCNARKRGARFILGYDYSGQGTQVTVSS	low polyreactivity
QFQLVESGGGLVQAGGSLRLSCAASGRTFGTYAMGWYRQAPGKEREVVAAISTRGGRTFYADSVKGRFTISRDNAKNTVYLQMNSLKPEDTAVYYCAARGTDPGHKYEYWGQGTQVTVSS	high polyreactivity
QFQLVESGGGLVQAGGSLRLSCAASGRTFRSNTMGWYRQAPGKEREFVAVITYSAGSTYYADSVKGRFTISRDNAKNTVYLQMNSLKPEDTAVYYCAARVSWWPYDWYGYWGQGTQVTVSS	high polyreactivity
QFQLVESGGGLVQAGGSLRLSCAASGRTFTSNAMGWYRQAPGKERELVAAIDDGGSTNYADSVKGRFTISRDNAKNTVYLQMNSLKPEDTAVYYCATGYWELRYDYWGQGTQVTVSS	low polyreactivity
QFQLVESGGGLVQAGGSLRLSCAASGRTFYDNTMGWYRQAPGKERELVAAITRNGGSTYYADSVKGRFTISRDNAKNTVYLQMNSLKPEDTAVYYCAAEGPSHRLNVRLVKGSDSWGQGTQVTVSS	low polyreactivity
QFQLVESGGGLVQAGGSLRLSCAASGRTISHNVMGWYRQAPGKEWELVAAISRNGGRTYYADSVKGRFTISRDNAKNTVYLQLNSLKTEDTAVYYCAAEAYPEYYYWGLGTQVTVSS	high polyreactivity
QFQLVESGGGLVQAGGSLRLSCAASGRTLSSYDMGWYRQAPGKERELVAAISRGGSTYYADSVKGRFTISRDNAKNTVYLQMNSLKPEDTAVYYCAASFYGGYWGYDYWGQGTQVTVSS	high polyreactivity
QFQLVESGGGLVQAGGSLRLSCAASGSIFGYYDMGWYRQAPGKERELVAAISWSGDTTYYADSVKGRFTISRDNAKNTVDLQMNILTPEDTAVYYCSAEFYDWLGGMGYWGQGTQVNVSS	low polyreactivity
QFQLVESGGGLVQAGGSLRLSCAASGSIFPNYAMGWYRQAPGKDRELVAVITQRGGRTYYADSVKGRFTISRDNAKNTVYLQMNSLKPEDTAVYYCAASYRGVPEYDSWGQGTQVTVSS	low polyreactivity
QFQLVESGGGLVQAGGSLRLSCAASGSIFRGTAMGWYRQAPGKERELVAAINKSGGSTYYADSVKGRFTISRDNAKNTVYLQMNSLKPEDTAVYYCAARGYFWSSYKYDYWGQGTEVTVSS	high polyreactivity
QFQLVESGGGLVQAGGSLRLSCAASGSIFSVYTKGRYRQAPGKERELVAAISTGGGSTYYADSVKGRFTISRDNAKNTVYLQMNSLKPEDTALYYCATDYGWAPSYWYDSCGQGTQVTVSS	low polyreactivity
QFQLVESGGGLVQAGGSLRLSCAASGSIFSYYAMGWYRQAPGKERELVAGITWSGGRTYYADSVKGRFTISRDNAKNTVYLQMNSLKPEDTAVYYCAAAVKRALDYWGQGTQVTVSS	high polyreactivity
QFQLVESGGGLVQAGGSLRLSCAASGSIFTLYDMGWYRQAPGNERELVAAISSGGGSTYYADSVKGRFTISRDNAKNTVYLQMNSLKPEDTAVYYCAARNRRAKYGDWGQGTQVTVSS	high polyreactivity
QFQLVESGGGLVQAGGSLRLSCAASGSIFVTNAMGWYRQAPGKERELVAAISSGGNTNYADSVKGRFTISRDNAKNTVYLQMNSLKPEDTAVYYCAKDPDKVDFVDMDYWGQGTQVTVSS	low polyreactivity
QFQLVESGGGLVQAGGSLRLSCAASGSIFYRYAMGSDRQAPGKERELVAAISTGGGSTKYADSVKGRFTISRHNAKNTVYLQMNSLKPEDTAVYYCAASRAVTQYSGGGYGGQGTQVTVSS	high polyreactivity
QFQLVESGGGLVQAGGSLRLSCAASGSIFYYNAMGCYRQAPGKEREVVAAISWSGGSTYYADSVKGRFTISRDNAKNTVYLQMNSLKPEDTAVYYCNAVGWYTYFYGSRKYNSWGQGTQVTVSS	low polyreactivity
QFQLVESGGGLVQAGGSLRLSCAASGSILVPNDMGWYRQAPGKEREFVAAITESDGSTYYADSVKGRFTISRDNAKNTVYLQMNSLKPEDTAVYYCASDSTGVTFVHFDYWGQGTQVTVSS	low polyreactivity
QFQLVESGGGLVQAGGSLRLSCAASGSTFDPNAMGGYRQAPGKERELVASITSRGGSTYYADSVKGRFTISRDNAKNTVYLQMNSLKPEDTAVYYCAAVGGATYSWNGYSWYPWHNYWGQGTQVTVSS	low polyreactivity

Sequence	polyreactivity (PSR sort gate)
QFQLVESGGGLVQAGGSLRLSCAASGSTFGTYAMGWYRQAPGKERELVAAISSGGSTYYADSVKGRFTISRDNAKNTVYLQMNSLKPEDTAVYYCAAGYYWYVWGFGYWGQGTQVTVSS	low polyreactivity
QFQLVESGGGLVQAGGSLRLSCAASGSTFSNYAMGWYRQAPGKERELVAAISSRGGSTYYADSVKGRFTISRDHAKNTVNLQMISLKPEDTAVYYCATYYVYKLYYWGQGTQVTVSS	high polyreactivity
QFQLVESGGGLVQAGGSLRLSCAASGSTFWTNAMGWYRQAPGKERELVAVISRGGSTNYADSVKGRFTISRDNEKNTVYLQMNSLKPEDTAVFYCAAASYLYGRYYYWGQGTQVTVSS	high polyreactivity
QFQLVESGGGLVQAGGSLRLSCAATGSIFHYYAMGWYRHAPGKERELVAAINSSGGSRSYYADSVKGRFTISRDNAKNTVFLQMNSLKPVDTAVYYCAAEYRVVWRAYDYWGKGTQVTVSS	low polyreactivity
QFQLVESGGGLVQAGGSLRLSCADSGIIFRDNAMGWYRQAPGKERELVATIRRRGGGTYYADSVKGRFTISRDNAKNTVYLQMNSLKPEDSAVYYCAARVIKSSHDYDYWGQGTQVTVSS	low polyreactivity
QFQLVESGGGLVQAGGSLRLSCADSGSIFLLYVMGWYRQAPGKERELVAAISSGGSTNYADSVKGRFTISRDNAKNTVYLQMNSLKPEDTAVYYCNAVAVPQGVKLYDYWGQGTQVTVSS	low polyreactivity
QFQLVESGGGLVQAGGSLRLSCADSGSTFFNNAMGWYRHAPGKERELVAAITSSGGSTYYADSVKGRFSISRDNAKNTVYLQMNSLKPEDTAVYYCNKKSALYRRYDYWGQGTQVTVSS	low polyreactivity
QFQLVESGGGLVQAGGSLRLSCASSGSTFGYNAMGWYRQAPGKESELVAAISYSGGSTSYADSVKGRFTISRDNAKNTVYLQMNSLKPEDSAVYYCASDSYSQYSSQALEGFGYWGQGTQVTVSS	low polyreactivity
QFQLVESGGGLVQAGGSLRLSSAASGFTFVYYVMGWYRQAPGKERELVAAINAGGGSTYYADSVKGRITISRDNAKNTVYLQMYSLKPEDTAVYSFNARVRVRWGRNWSSYYYWGQGTQVTVSS	high polyreactivity
QFQLVESGGGLVQAGGSLRLSYAASGRTFSSYAMGWYRQAPGKERELVAAITKRGGNTYYADSVKGRFTISRDNAKNTVYLQMNSLKPEDTAVYYCAAGWERFRNYNYWGQGTQVTVSS	high polyreactivity
QFQLVESGGGLVQAGGSLRLTCAASGNIFADYAMGWYRQAPGKERELVAAISRGGITSYADSVKGRFTISRDNAKNTVYLQMNSRKPEDTAVYYCATVRYDVYDSLGFGYWGQGTQVTVSS	low polyreactivity
QFQLVESGGGLVQAGGSLRLTCAASVSTFSSYVMGWYRQAPGKDRELVAAISSIGGSTYYADSVKGRFTISRDNAKTNDYLQMNSLKPEDTAVYYCAAEPPGSTYEGGYWGQGTQVTVSS	low polyreactivity
QFQLVESGGGLVQAGGSLRSSCAASGFIFREYAMGWYRQAPGKERELVAAISTSGGDTYYADSVKGRFTISRDNAKNTVYLQMNSLKPEDTAVYYCAAEYDGYWDSNRGNYWGQGTQVTVSS	low polyreactivity
QFQLVESGGGLVQAGGSLSLSCAASGSTFSFNARGSYRQAPGKERELVAAITSGGSTYYADSVKGRFTISRDNAKNTVYLQMNSLKPEDTAVYYCAAAWAYGFGTRRYYWGQGTQVTVSS	high polyreactivity
QFQLVESGGGLVQAGGSLSLSCAASGSTFVWYAMGWYRPAPGKERELVAAINFGGTTYYADSVKGRFTISRDNAKNTVYLQMNSLKPEDNAVYYCATEYDYGYWYPDGWVIFDYWVQGTQVTVSS	low polyreactivity
QFQLVESGGGLVQAVVSLRLSCAASGSIFDIYDMGWYRQAPGKETELDAAIRSGDRTHYADSVKGRFTISRDNAKITVYLQMNSLKPEDTAVYYCAADRYIYLNREHDYWGQGTQVTVSS	low polyreactivity
QFQLVESGGGLVQSGGSLRLSCAASGSTFGYYTMGWYRPAPGTERELVAAITWSGGSTYYADSVKGRFTISRDNAKNTVYLPMNSLKPEDTAVYYCAADDYWTPFGYWGQGTQVTVSS	low polyreactivity
QFQLVESGGRLVQAGGSLRLSCAASGSIFYLNAIGSYRQAPGKERELVAAISRSGGRTYYADSVKGRFTISRDNAKNTVYLQMNSLIPEDTAVYYCAADVQAQGAYRGGYWGQGTQVTVSS	high polyreactivity
QFQLVESGRGLVQAGGSLRLSCAASGSTFSANAMGWYRQAPGKERELVAAISRSGTRTYYADSVKGRFTISRDNAKNTVYLQMNSLKPEDTAVYYCAAYVYQYGYDYWGQGTQVTVSS	high polyreactivity
QFQLVESGVGLVQAGARLRLSSAASGFTIKYYAMGWYRQAPGKERELVATITRGGSTNYADSVKGRFTISRDNAKNTVYLQMNSLNPEDTAVYYCAKGYPYYYYDYDSWGQGTQVTVSS	high polyreactivity
QFQLVESGVVLVQAAASLRLSCAASGIIFQRNDMGWNRQAPGKETDLVANIRDGGITNADSVKGRFTISRDNAKNTVYLQMNCLKPEDTAVYYCARDDTSPGYGDQSSNAAYYYWGQGTQVTVSS	low polyreactivity
